The text below walks through data of PMC5741687, “A Novel Role for CSRP1 in a Lebanese Family with Congenital Cardiac Defects” (Frontiers in Genetics, 2017).

For assay [1], the target named is HA-tagged GATA4 (UniProt P43694). Kind of assay: co-IP; nuclear extracts (200 ug protein) of HEK293 cells transiently overexpressing both proteins; anti-HA on Dynabeads Protein G, 2 h at RT, washed three times with PBS; blot with anti-Flag, then stripped and probed with anti-HA.
A further assay has as its target HA-tagged GATA6 (UniProt Q92908). The assay is described as above.
Assay [2] concerns the target HA-tagged serum response factor (SRF) (UniProt P11831). The description is as above.
Assay [3] addresses HA-tagged TBX5 (UniProt Q99593). Described as above.
Assay [4] deals with HA-tagged GATA4 (UniProt P43694).
The target of assay [5] is HA-tagged serum response factor (SRF) (UniProt P11831).
For assay [6], the target named is T1, HA-tagged serum response factor (SRF) (UniProt P11831 1-508).
T1 sequence (looked up): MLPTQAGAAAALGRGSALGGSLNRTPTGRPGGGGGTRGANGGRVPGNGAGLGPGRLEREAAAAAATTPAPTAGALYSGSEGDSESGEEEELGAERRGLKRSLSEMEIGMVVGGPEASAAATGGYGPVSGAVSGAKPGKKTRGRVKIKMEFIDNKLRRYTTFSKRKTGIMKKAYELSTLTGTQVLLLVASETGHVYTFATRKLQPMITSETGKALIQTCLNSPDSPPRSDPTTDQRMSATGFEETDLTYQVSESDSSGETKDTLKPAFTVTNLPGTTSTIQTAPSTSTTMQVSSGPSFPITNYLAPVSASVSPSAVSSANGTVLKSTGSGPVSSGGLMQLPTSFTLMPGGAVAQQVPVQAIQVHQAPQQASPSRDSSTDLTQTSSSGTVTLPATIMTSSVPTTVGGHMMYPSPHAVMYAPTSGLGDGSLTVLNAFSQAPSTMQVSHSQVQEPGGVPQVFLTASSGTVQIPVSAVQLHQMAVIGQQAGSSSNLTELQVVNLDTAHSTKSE
Put plainly: cell-based or functional assay.

For assay [7], the target named is HA-tagged GATA4 (UniProt P43694 1-442). Put plainly: cell-based or functional assay.
Assay [8] deals with T2, HA-tagged TBX5 (UniProt Q99593 1-518).
T2 sequence (looked up): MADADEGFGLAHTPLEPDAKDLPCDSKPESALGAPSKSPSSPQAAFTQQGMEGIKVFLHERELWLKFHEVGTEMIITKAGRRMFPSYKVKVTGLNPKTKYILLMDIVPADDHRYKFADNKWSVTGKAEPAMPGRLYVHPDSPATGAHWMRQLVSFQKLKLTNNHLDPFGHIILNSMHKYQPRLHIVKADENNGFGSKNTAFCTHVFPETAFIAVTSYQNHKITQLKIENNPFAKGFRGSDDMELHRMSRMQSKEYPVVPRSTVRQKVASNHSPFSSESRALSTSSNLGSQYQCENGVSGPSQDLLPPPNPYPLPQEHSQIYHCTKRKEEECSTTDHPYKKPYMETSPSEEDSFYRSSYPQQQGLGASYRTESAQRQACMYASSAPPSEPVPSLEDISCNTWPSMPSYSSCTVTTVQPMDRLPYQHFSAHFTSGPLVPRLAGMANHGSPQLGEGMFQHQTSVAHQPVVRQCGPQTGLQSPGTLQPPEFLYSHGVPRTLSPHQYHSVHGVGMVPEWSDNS
Kind of assay: cell-based or functional assay.

Chain of HA-tagged GATA4 (UniProt P43694) (P43694 whole entry): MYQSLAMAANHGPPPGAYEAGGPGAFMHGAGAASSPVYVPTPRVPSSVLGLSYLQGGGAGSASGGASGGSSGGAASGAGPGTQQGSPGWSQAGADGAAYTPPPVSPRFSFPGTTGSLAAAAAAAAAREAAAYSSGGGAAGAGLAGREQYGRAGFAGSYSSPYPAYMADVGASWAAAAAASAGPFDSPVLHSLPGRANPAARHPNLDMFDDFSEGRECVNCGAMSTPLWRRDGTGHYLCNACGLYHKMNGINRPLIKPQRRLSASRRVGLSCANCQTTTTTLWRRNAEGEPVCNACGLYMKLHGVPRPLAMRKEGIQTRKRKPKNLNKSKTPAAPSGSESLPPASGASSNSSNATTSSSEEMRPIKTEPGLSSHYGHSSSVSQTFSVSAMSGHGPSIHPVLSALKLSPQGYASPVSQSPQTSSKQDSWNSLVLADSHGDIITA
Chain of HA-tagged GATA6 (Q92908 whole entry): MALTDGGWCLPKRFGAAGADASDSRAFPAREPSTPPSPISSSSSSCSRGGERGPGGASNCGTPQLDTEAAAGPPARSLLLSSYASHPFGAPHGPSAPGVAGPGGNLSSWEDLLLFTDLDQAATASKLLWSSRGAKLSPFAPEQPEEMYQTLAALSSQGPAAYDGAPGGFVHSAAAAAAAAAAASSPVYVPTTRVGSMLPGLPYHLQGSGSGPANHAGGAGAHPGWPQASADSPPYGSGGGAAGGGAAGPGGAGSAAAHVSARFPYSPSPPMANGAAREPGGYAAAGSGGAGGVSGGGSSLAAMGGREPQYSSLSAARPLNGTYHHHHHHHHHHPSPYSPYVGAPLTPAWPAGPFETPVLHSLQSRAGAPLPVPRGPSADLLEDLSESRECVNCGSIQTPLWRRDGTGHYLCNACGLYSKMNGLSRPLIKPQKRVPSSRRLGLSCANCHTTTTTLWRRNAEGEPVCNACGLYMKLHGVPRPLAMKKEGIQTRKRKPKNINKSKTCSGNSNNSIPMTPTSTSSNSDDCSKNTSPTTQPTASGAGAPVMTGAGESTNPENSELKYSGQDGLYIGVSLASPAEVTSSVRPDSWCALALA
Chain of HA-tagged GATA4 (UniProt P43694 1-442) (P43694 whole entry): as the sequence (P43694 whole entry) above

For “Flag-tagged p.E154Vfs*99 CSRP1 mutant (from UniProt P21291 1-153) (natural protein)”, the results for the percent inhibition of the co-precipitation against wild-type CSRP1 (with HA-tagged GATA4 [1]; in [2]) were under 85% and 82%, respectively. Moreover, the percent increase of the co-precipitation against wild-type CSRP1 with HA-tagged GATA6 came out at 15%. For the same molecule, in the assay with HA-tagged TBX5 [3], the percent decrease of the co-precipitation against wild-type CSRP1 is under 55.3%. In the assay with HA-tagged GATA4 [4], the synergy on the NPPA, VEGF and NOS3 luciferase promoters, co-transfection assays, fold activation (promoter of the number not told); synergy completely lost is 5 fold. In assay [5], the percent inhibition of the synergy with SRF over the NPPA-luciferase promoter, co-transfection in HEK293 cells stood at 50%.

B1: Flag-tagged wild type human CSRP1 (natural protein, UniProt P21291 1-193, looked up)
chain: MPNWGGGKKCGVCQKTVYFAEEVQCEGNSFHKSCFLCMVCKKNLDSTTVAVHGEEIYCKSCYGKKYGPKGYGYGQGAGTLSTDKGESLGIKHEEAPGHRPTTNPNASKFAQKIGGSERCPRCSQAVYAAEKVIGAGKSWHKACFRCAKCGKGLESTTLADKDGEIYCKGCYAKNFGPKGFGFGQGAGALVHSE
Regarding B1, in assay [6], the “synergistic activation of the NOS3-luciferase promoter, co-transfection in HEK293 cells, fold activation” value worked out at 14 fold; the “synergistic activation of the NPPA-luciferase promoter, co-transfection in HEK293 cells, fold activation” value turned out to be 100 fold; the “synergistic activation of the VEGF-luciferase promoter, co-transfection in HEK293 cells, fold activation” value was 22.3 fold. For the same molecule, the “synergy on the NPPA, VEGF and NOS3 luciferase promoters, co-transfection assays, fold activation (promoter of the number not told)” value in the assay with HA-tagged GATA4 [7] was determined as 22 fold. Further, the “synergistic activation of the NPPA, VEGF and NOS3 luciferase promoters, co-transfection in HEK293 (CSRP1 400 and 600 ng, TBX5 200 and 400 ng); highest value on the NOS3 promoter” value with HA-tagged TBX5 [8] was 40 fold.
